The values that follow come from patent US20080247951A1 (Genentech, published 2008).

Assay [1] deals with T1, murine Robo4 expressed endogenously on MS1 cells (mouse, UniProt Q8C310 28-1012).
T1 construct: whole, on cells
T1 sequence (looked up): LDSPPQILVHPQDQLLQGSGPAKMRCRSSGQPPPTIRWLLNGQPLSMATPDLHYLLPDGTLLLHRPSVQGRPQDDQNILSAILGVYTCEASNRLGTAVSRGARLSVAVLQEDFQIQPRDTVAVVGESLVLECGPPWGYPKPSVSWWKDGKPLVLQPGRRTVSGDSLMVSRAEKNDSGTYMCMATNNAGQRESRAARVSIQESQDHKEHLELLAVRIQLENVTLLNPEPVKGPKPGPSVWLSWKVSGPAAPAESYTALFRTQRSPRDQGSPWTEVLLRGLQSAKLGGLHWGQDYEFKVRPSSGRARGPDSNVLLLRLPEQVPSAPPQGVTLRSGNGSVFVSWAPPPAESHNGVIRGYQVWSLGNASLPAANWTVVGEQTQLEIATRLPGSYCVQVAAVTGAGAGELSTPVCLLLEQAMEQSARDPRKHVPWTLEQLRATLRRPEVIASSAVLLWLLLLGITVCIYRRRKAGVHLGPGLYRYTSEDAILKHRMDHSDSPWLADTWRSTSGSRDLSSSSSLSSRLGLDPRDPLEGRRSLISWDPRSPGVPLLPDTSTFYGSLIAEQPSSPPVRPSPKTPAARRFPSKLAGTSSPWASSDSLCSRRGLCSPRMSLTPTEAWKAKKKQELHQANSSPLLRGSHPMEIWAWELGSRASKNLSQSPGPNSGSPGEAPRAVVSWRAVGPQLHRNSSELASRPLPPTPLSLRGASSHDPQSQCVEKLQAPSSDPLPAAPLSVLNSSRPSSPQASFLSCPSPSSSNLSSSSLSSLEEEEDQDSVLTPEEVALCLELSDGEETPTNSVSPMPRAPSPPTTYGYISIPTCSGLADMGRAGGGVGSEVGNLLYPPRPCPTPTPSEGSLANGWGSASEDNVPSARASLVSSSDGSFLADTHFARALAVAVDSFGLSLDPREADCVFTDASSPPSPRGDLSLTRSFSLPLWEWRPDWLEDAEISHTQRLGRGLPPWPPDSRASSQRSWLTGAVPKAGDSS
As to the kind of experiment: FACS on MS1 cells, Alexa 488 detection.

The target in assay [2] is T2, human Robo4 expressed endogenously on HUVEC cells (human, UniProt Q8WZ75 28-1007).
T2 sequence: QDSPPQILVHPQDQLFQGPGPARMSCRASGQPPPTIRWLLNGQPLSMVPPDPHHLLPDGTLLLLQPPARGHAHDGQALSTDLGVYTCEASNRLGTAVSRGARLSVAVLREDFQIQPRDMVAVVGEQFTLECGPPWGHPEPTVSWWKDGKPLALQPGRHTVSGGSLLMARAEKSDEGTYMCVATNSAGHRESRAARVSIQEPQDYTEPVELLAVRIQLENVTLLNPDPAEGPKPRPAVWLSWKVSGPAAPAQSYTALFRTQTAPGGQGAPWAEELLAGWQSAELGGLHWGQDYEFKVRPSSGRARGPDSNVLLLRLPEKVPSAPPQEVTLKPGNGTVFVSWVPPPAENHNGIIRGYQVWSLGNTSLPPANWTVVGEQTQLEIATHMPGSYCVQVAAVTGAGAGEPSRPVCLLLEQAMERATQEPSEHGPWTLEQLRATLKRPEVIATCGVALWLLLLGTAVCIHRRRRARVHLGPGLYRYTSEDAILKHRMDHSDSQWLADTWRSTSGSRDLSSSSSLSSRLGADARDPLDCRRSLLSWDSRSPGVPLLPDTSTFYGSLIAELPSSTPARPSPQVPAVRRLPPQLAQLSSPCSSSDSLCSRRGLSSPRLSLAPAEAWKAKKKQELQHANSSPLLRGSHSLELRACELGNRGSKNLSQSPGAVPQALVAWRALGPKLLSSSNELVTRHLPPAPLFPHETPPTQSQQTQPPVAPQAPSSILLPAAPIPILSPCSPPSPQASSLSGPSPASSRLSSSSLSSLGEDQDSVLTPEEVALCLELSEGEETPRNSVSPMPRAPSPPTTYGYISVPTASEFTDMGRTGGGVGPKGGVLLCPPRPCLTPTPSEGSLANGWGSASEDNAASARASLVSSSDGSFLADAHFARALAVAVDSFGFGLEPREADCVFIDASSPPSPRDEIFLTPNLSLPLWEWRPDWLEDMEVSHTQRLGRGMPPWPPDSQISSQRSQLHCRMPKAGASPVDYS
As to the kind of experiment: FACS on HUVEC cells, Alexa 488 detection.

B1: anti-Robo4 antibody YW71.22 (full length) (antibody, V domains shown)
VH: EVQLVESGGGLVQPGGSLRLSCAASGFTINGYYIHWVRQAPGKGLEWVGFIYPAGGDTDYADSVKGRFTISADTSKNTAYLQMNSLRAEDTAVYYCARLIGNKFGWSSYGMDYWGQGTLVTVSS
VL: DIQMTQSPSSLSASVGDRVTITCRASQDVSTAVAWYQQKPGKAPKLLIYSASFLYSGVPSRFSGSGSGTDFTLTISSLQPEDFATTYCQQSYTTPPTFGQGTKVEIKR
notes: also called parent antibody
Consider B1, for which the binding result in assay [1] and in assay [2] was “binds” throughout.
